Reference: PMC11128199 (JCI Insight, 2024)

Target: T1, stabilized SARS-CoV-2 Omicron S ECD HexaPro (SARS-CoV-2 Omicron BA.1, stabilised)
T1 construct: also called prefusion Omicron BA.1 S trimer; BA.1 S
Assay: cryo-EM structure
Conditions: both partners purified

B1: 58G6 Fab (Fab, V domains shown)
VH: QMQLVQSGPEVKKPGTSVKVSCKASGFTFSSSAVQWVRQARGQHLEWIGWIVVGSGNTNYAQKFQERVTLTRDMSTRTAYMELSSLRSEDTAVYYCAAPNCNSTTCHDGFDIWGQGTVVTVSS
VL: EIVLTQSPGTLSLSPGERATLSCRASQSVRSSYLGWYQQKPGQAPRLLIYGASSRATGIPDRFSGSGSGTDFTLTISRLESEDFAVYYCQQYDNSPWTFGQGTKVEIK
  stoichiometry N: 1 Fabs per S trimer
